The results in this text go back to patent publication US11905559B2, “Materials and methods for controlling gene expression” (priority 2016, dated 2024).

This data set is described as follows: Force-ramp mechanical unfolding-refolding of the guanine-aptamer (optical tweezers). The data set is classed as physicochemical. The following applies: for Unfolding force of the aptamer / Observed nucleotides / Observed ΔXobs: +1 μM guanine, force-ramp; for Observed nucleotides / Observed ΔXobs: complete aptamer (69 nt), 18 pN. How it is done: A 69 nucleotide (nt) guanine-sensing aptamer (FIGS. 3 and 4A-B) from xpt-pbuX operon in B. subtilis was used for mechanical unfolding-refolding studies. In the experimental set up shown in FIGS. 2A-E, a single molecule of the guanine-aptamer RNA was clamped between two polystyrene beads through RNA-DNA handles. […] Considering the inter-nucleotide distance as 0.448 nm at 18 pN, then using a serial worm-like chain equation
The forces on the bead were recorded at an acquisition rate of 44 kHz. Data was collected from the stereo phone jacks on the ADC boards of the Tweezers instrument and sent to the host computer audio input for analysis by SignalScope program (Faber Acoustical, LLC). As shown in the plot, power spectral density is fitted with the Lorentzian fit to yield the corner frequency (fc) that was used to calculate the trap stiffness. This setup was used to perform three different mechanical reactions: force-ramp (FR), constant-force (CF) and force-jump (FJ) under a controlled force. In the force-ramp (FR) experiment, the trap was moved at 200 nm/s, which corresponded to a loading rate 7-8 pN/s. […] The force-ramp data is plotted as force vs. extension curves (FEC).
In the force-ramp experiment, the trap was moved away (pull cycle) from the micropipette at 200 nm/sec, which corresponded to a loading rate of 7-8 pN/sec. This movement of the trap exerted a tension at the ends of the tethered RNA aptamer. […] In the constant-force (CF) experiment, the RNA was held at a preset force (FIG. 6A). The loading rate in CF experiments was zero. The preset force typically fluctuated around the mean with standard deviation ±0.15 pN. The force-ramp and the CF experiments were carried out at an ambient temperature 25±0.5° C. in buffer containing 10 mM Tris-HCl, pH 7.5 at 250 mM NaCl, 3 mM MgCl2 unless mentioned otherwise.

[1] abbreviates: 200 nM guanine, sequential unfolding.

B1: wt: 69-nucleotide full-length wild-type guanine sensing aptamer RNA sequence from xpt-pbuX operon in B. subtilis (SEQ ID NO: 1) (nucleic acid)
chain: CACUCAUAUAAUCGCGUGGAUAUGGCACGCAAGUUUCUACCGGGCACCGUAAAUGUCCGACUAUGGGUG
modifications: RNA, backbone and methylation of C not given here
For the molecule B1, the Observed nucleotides is given as 67.1 ± 2 and the “Observed ΔXobs” value is on record as 30.2 ± 1.0 nm. Moreover, under setting [1], the “Force at which P1 melted” value is listed as 5-10 pN and the “Force at which P2, P3 unfolded” value is recorded as 12-15 pN. Moreover, under “listed as guanine-aptamer”, the “Unfolding force of the aptamer” value worked out at 18.6±1.1 pN and the “Observed ΔXobs” value is 30.2±1 nm. Where the note is “listed as isolated aptamer”, the “Unfolding force of the aptamer” value is around 18.0 pN and the “Observed ΔXobs” value was around 30 nm. For the same molecule, the Observed nucleotides (listed as 69 nt-aptamer) is given as 67±2.
